Literature values in PMC4160827.

Target: HIF-1α CODD (Homo sapiens) (UniProt Q16665)

## PHD2 (from UniProt Q9GZT9)
  Kd: 14 µM
